# Experimental data: publication PMC6476982, “The CXXC Motifs Are Essential for the Function of BosR in Borrelia burgdorferi” (Frontiers in Cellular and Infection Microbiology, 2019)
# B1: recombinant BosR with a C-terminal Strep-II tag (WT rBosR-StrepII) (natural protein)
# chain: MNDNIIDVHSALEKVGITNDPVLLKNLTSELGMKASHSRNRIILYIASNPKEYFTAKEVYNKLIKEIPSLSKATVYNTLNILKERNILKDIKTTDQKETKFYLSLASTIAHFKCNKCNQVHPIQLDDIKDILKDKLGENWETKSIEIIYSGHCNNCYKKDTHNNNNVPDENKEITL
# notes: BosR (Fur family member), Borrelia burgdorferi strain 297, ORF bb0647; bosR amplified with primers from the ATG start codon to the last codon before the stop, fused directly to the Strep-II tag; theoretical MW of rBosR-StrepII 21.25 kDa; also called pOY436; source: E. coli M15 (pREP4), purified (Strep-Tactin resin, Superdex 200 FPLC)
# Molecular target: the molecule itself
# Assay: SEC; HiLoad 16/60 Superdex 200 prep grade column on an Äkta FPLC in buffer A (20 mM Hepes, 300 mM NaCl, 100 mM L-arginine, 1 mM TCEP, pH 7.0); molecular weight from a calibration curve of gel filtration standards; self-association, dimer or monomer
protein,measurement,value
B1,stoichiometry N,2
